Experimental data: publication PMC9040721

What was measured:
[1] = target: recombinant TRP120 tandem repeat domain, His-tagged (rTRP120-TR) (E. chaffeensis) (UniProt Q2GI62); experiment: SPR; Biacore T100, NTA sensor chip; His-tagged TRP120-FL, TRP120-TR or TRX (0.1 uM) immobilised; Fc-tagged Notch-1 LBR as analyte, 2-fold dilutions 800 nM to 25 nM; 25 C; 100 mM sodium phosphate pH 7.4, 400 mM NaCl, 40 uM EDTA; 1:1 Langmuir model
[2] = target: recombinant full-length TRP120, His-tagged (rTRP120-FL) (E. chaffeensis) (UniProt Q2GI62); experiment: as above

Substance: human rNotch-1 Fc Chimera Protein, CF (R&D Systems); Fc-tagged Notch-1 ligand-binding region (LBR) (from UniProt P46531 19-2555) (Fc fusion)
- Kd [1]: 120 nM
- Kd [2]: 100 nM
